Source: the DeepSol protein solubility set

Assay: soluble on expression in E. coli; label from the status in PepcDB or PDB records

Sequence | soluble on expression in E. coli
MGSDKIHHHHHHMASPGSGFWSFGSEDGSADPENPGTARAWCQVAQKFTGGIGNKLCALLYGDSGKPAEGGGSVTSRAATGKVACTCDQKPCNCPKGDVNYAFLHATDLLPACDGERPTLAFLQDVMNILLQYVVKSFDRSTKVIDFHYPNELLQEYNWELADQPQNLEEILTHCQTTLKYAIKTGHPRYFNQLSTGLDMVGLAADWLTSTANTNMFTYEIAPVFVLLEYVTLKKMREIIGWPGGSGDGIFSPGGAISNMYAMLIARYKMFPEVKEKGMAAVPRLIAFTSEHSHFSLKKGAAALGIGTDSVILIKCDERGKMIPSDLERRILEVKQKGFVPFLVSATAGTTVYGAFDPLLAVADICKKYKIWMHVDAAWGGGLLMSRKHKWKLSGVERANSVTWNPHKMMGVPLQCSALLVREEGLMQSCNQMHASYLFQQDKHYDLSYDTGDKALQCGRHVDVFKLWLMWRAKGTTGFEAHIDKCLELAEYLYTIIKNREGYEMVFDGKPQHTNVCFWFVPPSLRTLEDNEERMSRLSKVAPVIKARMMEYGTTMVSYQPLGDKVNFFRMVISNPAATHQDIDFLIEEIERLGQDL | not soluble
MSAFQAFVVNKTETEFTAGVQTISMDDLPEGDVLVRVHYSSVNYKDGLASIPDGKIVKTYPFVPGIDLAGVVVSSQHPRFREGDEVIATGYEIGVTHFGGYSEYARLHGEWLVPLPKGLTLKEAMAIGTAGFTAALSIHRLEEHGLTPERGPVLVTGATGGVGSLAVSMLAKRGYTVEASTGKAAEHDYLRVLGAKEVLAREDVMAERIRPLDKQRWAAAVDPVGGRTLATVLSRMRYGGAVAVSGLTGGAEVPTTVHPFILRGVSLLGIDSVYCPMDLRLRIWERLAGDLKPDLERIAQEISLAELPQALKRILRGELRGRTVVRLA | soluble
MGKKRKHQDSDSEQSGKRVKKVEEARNGVADMTIDESSDFQVFLIKKPIGVSLEDLEALKWSNDEEVLTKTKLKTESGVFRAIVAPKSKKERMVHIPAFREREEADSKNIKAQSFVTGAITILPQEVKPKVLGGFIYEEGEEPVEGSSEVHPGLKKIKKTAILDLESRQQRNKAYGTTTEGDGKPRKLANIIEKMN | soluble
GMMFKWPWKADDESGNAEMPWEQALAIPVLAHLSSTEQHKLTQMAARFLQQKRLVALQGLELTPLHQARIAMLFCLPVLELGIEWLDGFHEVLIYPAPFIVDDEWEDDIGLVHNQRVVQSGQSWQQGPVVLNWLDIQDSFDASGFNLVVHEVAHKLDTRNGDRASGVPLIPLREVAGWEHDLHAAMNNIQDEIDLVGESAASIDAYAATDPAECFAVLSEYFFSAPELFAPRFPALWQRFCHFYRQDPLARRRENGLQDEGDRRIVH | soluble
MHFETVIGLEVHVELKTDSKMFSPSPAHFGAEPNSNTNVIDLAYPGVLPVVNKRAVDWAMRAAMALNMEIATESKFDRKNYFYPDNPKAYQISQFDQPIGENGYIDIEVDGETKRIGITRLHMEEDAGKSTHKGEYSLVDLNRQGTPLIEIVSEPDIRSPKEAYAYLEKLRSIIQYTGVSDVKMEEGSLRCDANISLRPYGQEKFGTKAELKNLNSFNYVRKGLEYEEKRQEEELLNGGEIGQETRRFDESTGKTILMRVKEGSDDYRYFPEPDIVPLYIDDAWKERVRQTIPELPDERKAKYVNELGLPAYDAHVLTLTKEMSDFFESTIEHGADVKLTSNWLMGGVNEYLNKNQVELLDTKLTPENLAGMIKLIEDGTMSSKIAKKVFPELAAKGGNAKQIMEDNGLVQISDEATLLKFVNEALDNNEQSVEDYKNGKGKAMGFLVGQIMKASKGQANPQLVNQLLKQELDKRLEHHHHHH | soluble
WLSGYAGPADGTQQPDAPEHAVAREALVDLCRRRHFLSGTPQQLSTAALLSGCHARFGPLGVELRKNLASQWWSSMVVFREQVFAVDSLHQEPGSSQPRDSAFRLVSPESIREILQDREPSKEQLVAFLENLLKTSGKLRATLLHGALEHYVNCLDLVNRKLPFGLAQIGVCFHPVSNSNQTPSSVTRVGEKTEASLVWFTPTRTSSQWLDFWLRHRLLWWRKFAMSPSNFSSADCQDELGRKGSKLYYSFPWGKEPIETLWNLGDQELLHTYPGNVSTIQGRDGRKNVVPCVLSVSGDVDLGTLAYLYDSFQLAENSFARKKSLQRKVLKLHPCLAPIKVALDVGKGPTVELRQVCQGLLNELLENGISVWPGYSETVHSSLEQLHSKYDEMSVLFSVLVTETTLENGLIQLRSRDTTMKEMMHISKLRDFLVKYLASASNVAAALDHHHHHH | soluble
MSLNAIARQEPFDLNDPALRARAVAAARGDAPFDMLITGGRLLDAVTGLIREADIGLVGALIASVHAPASRTDAVEIIDATGGILTPGLIDMHMHVESSMVTPAEYASAVLPHGVTTVVWDPHEFGNVQGLDGVRWAIEAARTLPLRMILLAPSCVPSAPGLELAGADFDAAVIAEMLRSPAVGGVAEVMNMRGVIDGDPRMSAIVNSGLASGKLVCGHARGLTGADLNAFMAAGVTSDHELTSGADLAAKLSAGLTIELRGSHDHLLQEFVEVLNGLGHLPATVTLCTDDVFPDELYQSGGLDEVARRLVRYGMKPEWALRAATFNAAQRLKRSDLGLVASGRRADLVLFEDLTELRARLVISDGRIVARNGSMEAAVQPLDTAPLINSTKLPPLTESDFRVPAKGARVRIATIDRPRFTQWGEAETEIRDGFVVPPAGSAMIAVAHRHGKAGGTPRIGFLTGWGEWRGAFCTTVSHDSHNLTVFGGDARDMALAANAVIKAGGGLAVAKDGAIQAILPLPLSGLVTDASLKDTASAFSDIRKAMDKIVDWKPPYRVFKACFGATLACNAGPHQTDRGIADVTTGKVLESPVLEIEGHHHHHH | soluble
MTQGAVKTTGKRSRAVSAKKKAILSAALDTFSQFGFHGTRLEQIAELAGVSKTNLLYYFPSKEALYIAVLRQILDIWLAPLKAFREDFAPLAAIKEYIRLKLEVSRDYPQASRLFCMEMLAGAPLLMDELTGDLKALIDEKSALIAGWVKSGKLAPIDPQHLIFMIWASTQHYADFAPQVEAVTGATLRDEVFFNQTVENVQRIIIEGIRPR | soluble
MLCTHIKAEDCVERVPKGMFRKKQDMEDNNLFLEGNSNRGKVVKNQEIIKTFCDECDNCNKSLMCLTCGRILCGRNDSGHALHHFEETSHPVVIDCISFELYCYSCDDEVSLDFEPSLYGVLKSLKLLFDREDVMEGGDGPTIPAQPFHSRKNRISHEKSDKLRFSVKKTPIFLRNSIFLSGISENFDFSVKNGKKHQKSIFPPKKPKKSDLSAQKTSKSVFAPKQPKNSEFFNPKKHQISIFPTKNPQKFLFSVEKSIFSTINVQKCAPKKHQISIFPPKKPKNSDFPLKNPQFSFRTVTSVASTFTQKLHVAPASRNSKKKRGKKGKVSPMFVDTPPFQQQQGAAVIHDVTLSSTNSTSSGSGGATSSSEIAYRPRGMRNVGNTCFMNAVLQALASISEFREYIMSLSSLEDYIHDEKEPKNGGNYCYLTDEYRKLLISQSARSFREPTAPNEFREAFISVCPRFRGFRQHDSHEFMRYFMDSLHTEMRKCRKLPGMPDDKHTPISKYFEGTLQSSVICQTCRNCSNKIDEFMDLSLDIPAQRNASKVRLSDCLSTFFKLEMLEKGEKPECAKCKTKQTCSKQMFIRKLPQDSDEAPCTYSLQSIIVHIGYGCGSGHYIAFGKRNGRWFQFDDTVVKGVDEAHVSKQKAYVLLYTKIIRKID | not soluble
MKYTVITGASSGIGYAAALAFASRGKNLVLVARRQEELNGLKLKINEMHPELDVVIRKTDLSVTEDVYKLYESLQAFQIETWINNAGFGNFASIAEQNLNKIETMLHVNIEALTILSSLFVRDYSMIDGTQLINVSSGGGYTIVADAVTYCATKFYVSAFTEGLSHELKEQGAKLQAKVLAPAATETEFAKRSFDIDEFQYDNVVPKFHTAKQMAQFMLDLYDNDKVVGIVDGLTYNYELKDPLYNFAVRQKNSNS | not soluble
MSLAPRLKLRDITFFERPVQFARPFRFGAITMNATTQLFVRVEIEVEGRGSAVGASAELLVPKWFDKRPEFSPAQTVDGLRRSLEIARGLYLARTGFLTAFDLHAACIGAQIATCAKKNIPALAAAYGLAEIDKAILDALLRGVETGFFDGMAGNVAGIDARLSPDLKDAEIAAFLSSRKPLPRVAIRHTVGLDDTVEGKGGVADAHENAGASYFKLKLSGDPAADAARLARIGKELDTLGRSYKVTLDANEQYADLAALQALMDRLDHDSDLRPIASRLLYVEQPMPRDITRQSPLGSLAARGFIIDEADDSYDAFPAARALGYHGISSKSCKGLYKSIVSATRAAKWSGGGEKFFVTGEDLTCQAGLAVQQDLAMGAFLGVTHAERNGHHYVDGFGDTPAAEAAAFAAAHPDLYADAGQGIRLSIHDGDLLTGSLHAAGFATSVHPDWSALRPLEQPTSLQEQLAEGHHHHHH | not soluble
MISVFHYHQPKIGNSESEYEDAFSYDVEKGLFAMADGSSESVFSNEWARSLVDTFVAGKYDMKIDDMVETAVGMWRSKLPWNNMKWFVKNKIARGSMATFLGLEVLDGSFRSVAVGDTCLFIITPEGMKSFPVKYPSEFGNTPKLIWTGNPLLRTRRSIKWANYMEGRISESDLLIMATDSLAHWMLSRAKQRPWQILIDHSENEGEFIGSLINSGEMKNDDVTFAIISLK | not soluble
SNAMARKKNTSDQSRSQAANTPIAGTYEGEYSVIELEADSYTTDGWLISINGVPSSHIVLGQPQALEFEYMRWIATGARAFIDAHQDASKLRITHLGGGACTMARYFADVYPQSRNTVVELDAELARLSREWFDIPRAPRVKIRVDDARMVAESFTPASRDVIIRDVFAGAITPQNFTTVEFFEHCHRGLAPGGLYVANCGDHSDLRGAKSELAGMMEVFEHVAVIADPPMLKGRRYGNIILMGSDTEFFSSNSTEASAITRELLGGGVPAQYKDESWVRKFASGAQARHDGVSTLQMPSDTPQHPAETPEHSNTQP | soluble
PDITATPAWDALARHHDQIGNTHLRQFFADDPGRGRELTVSVGDLYIDYSKHRVTRETLALLIDLARTAHLEERRDQMFAGVHINTSEDRAVLHTALRLPRDAELVVDGQDVVTDVHAVLDAMGAFTDRLRSGEWTGATGKRISTVVNIGIGGSDLGPVMVYQALRHYADAGISARFVSNVDPADLIATLADLDPATTLFIVASKTFSTLETLTNATAARRWLTDALGDAAVSRHFVAVSTNKRLVDDFGINTDNMFGFWDWVGGRYSVDSAIGLSLMTVIGRDAFADFLAGFHIIDRHFATAPLESNAPVLLGLIGLWYSNFFGAQSRTVLPYSNDLSRFPAYLQQLTMESNGKSTRADGSPVSADTGEIFWGEPGTNGQHAFYQLLHQGTRLVPADFIGFAQPLDDLPTAEGTGSMHDLLMSNFFAQTQVLAFGKTAEEIAADGTPAHVVAHKVMPGNRPSTSILASRLTPSVLGQLIALYEHQVFTEGVVWGIDSFDQWGVELGKTQAKALLPVITGAGSPPPQSDSSTDGLVRRYRTERGRAGLE | soluble
MSLKVLKKEELVPTLYQLFSQAKEKVLVVSAWIRGSIFKELLSLLPENVQLEVIVRAGNLSDMDITDEAFFRETKKKGGRILLNPKLHSKFLIIDERYAVVGSSNITFMGLYPEGNVETNVLIEEKEKVKELLEFYENLKEESVDYTDVVGYAVSSRSPKEAEIVLLEDLKEQTYLGIQGEEFFLCRLSNVSGKKETREDALNRILSSEVWDWKVAALFAHLYERPEIKTGRLEILGEYEKERNLFKTPTKSVESGSLVKKLEPESEELKRILFKNHSGYDMKYPTYLGKLYNTEVKAYLDMDKVLGMHMAVLGTTGSGKTTFVKKILKNFKESEVIIFDIYGEYAQELGAKEVIVENVLMPISVEDVKDYLKEAGSTLEERSTEEKEFFSVFRRALKPDIEATELKEKSFKEIYEEAVKNLHSLHLKQDAQSVYEHLERTYSRGALEQQPKVLKEVVDFLNSEERVKVFNFKEVDITETKVNLTGLILKEIFIRAKKDRKPRLIVIEEAQNVAPERGTGDVPSGKENVAFVYAKKIAMEGRKLNLGLIAITQRPANLSKFILSQLNTQVIFKLITKNDLDAVSPFFEYSKEDIFRLLPFLKPGTAFVSGLAVPFSFLFQMEEIPYYEGHHHHHH | not soluble
